Test results as given in the supplement of paper PMC10567573.
± gives the standard deviation.

Assay: protein stability index of a GFP-peptide fusion (GPS, HEK-293T) (PSI 1-6); higher = more stable
[1] = treatment: DMSO, c terminus: a fixed tail appended
[2] = treatment: MLN4924 1 uM, 8 h, c terminus: a fixed tail appended
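Further: 24-mer peptide tiles fused after GFP, lentivirally expressed, FACS-sorted into six equal bins by GFP/DsRed ratio, decoded by Illumina sequencing, PSI is the read-weighted mean bin number.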

LQRASILDMRRDHEEQLQRLKLLK [FBF1]
protein stability index [1]: 3.43 ± 0.48
protein stability index [2]: 3.72 ± 0.33

LQVIYWARDVFIITGVWVFFFNPC [GOSR1]
protein stability index [1]: 2.37 ± 0.7
protein stability index [2]: 2.57 ± 0.15

LRAVEQAMGHSQDRLTTFQENQAR [LRRC45]
protein stability index [1]: 4.48 ± 0.23
protein stability index [2]: 4.34 ± 0.22

LRIFVWLLLLYFMQVIAIVLYLMM [PHTF1]
protein stability index [1]: 2.99 ± 0.71
protein stability index [2]: 2.75 ± 0.55

LRIRSVEGRKKAFSTCGSHLTVVA [OR3A1]
protein stability index [1]: 2.43 ± 0.42
protein stability index [2]: 2.2 ± 0.47

LRKGYLFMYNLVQFLGFSWIFVNL [HACD3]
protein stability index [1]: 3.5 ± 0.29
protein stability index [2]: 3.22 ± 0.31

LRNNFQKQLLSNKELILDKVYTHP [ZC2HC1C]
protein stability index [1]: 2.76 ± 0.23
protein stability index [2]: 3.08 ± 0.25

LRQHGPPNIVVAIAGNKCDLIDVR [RAB22A]
protein stability index [1]: 2.46 ± 0.39
protein stability index [2]: 2.4 ± 0.52

LRSAGVEQLMYIKEDLIIPHHHSF [FAM50A]
protein stability index [1]: 2.38 ± 0.35
protein stability index [2]: 2.37 ± 0.25

LRYLSSIWNILDLVVILLSIVAVG [PKD2L1]
protein stability index [1]: 2.66 ± 0.65
protein stability index [2]: 3.3 ± 0.32

LSFEQMTDAHVWNKSVTLYTVKDK [NLN]
protein stability index [1]: 2.61 ± 0.61
protein stability index [2]: 3.09 ± 0.63

LSLGALVALCWQLGLLFERHWHRP [SCNN1D]
protein stability index [1]: 3.09 ± 0.24
protein stability index [2]: 3.16 ± 0.19

LSLLVHNVSVMHKSLDNMPNDEHW [FBXO33]
protein stability index [1]: 2.36 ± 0.31
protein stability index [2]: 2.4 ± 0.14

LSPKIMQEAFLVQEVVELPVTERQ [TBC1D10A]
protein stability index [1]: 3.98 ± 0.19
protein stability index [2]: 3.91 ± 0.39

LSQADFLVCTFSSQVCRVAYEIMQ [FUT8]
protein stability index [1]: 2.96 ± 0.39
protein stability index [2]: 2.93 ± 0.58

LSSQCFSNISRPRDNPMCLKCDLQ [M1AP]
protein stability index [1]: 3.2 ± 0.035
protein stability index [2]: 3.27 ± 0.15

LTERKYKGDSTIRELKAKLSGVEE [SASS6]
protein stability index [1]: 4.18 ± 0.41
protein stability index [2]: 4.63 ± 0.52

LTFMNEQGEYPPGTSTWQFNFKFN [CNOT7]
protein stability index [1]: 2.21 ± 0.074
protein stability index [2]: 2.39 ± 0.3

LTPGQSDSAKREVKQKISPYFKSN [FAN1]
protein stability index [1]: 3.92 ± 0.19
protein stability index [2]: 3.97 ± 0.26

LTRQLVSCSSDGGIAVWNMDVSRE [WDFY1]
protein stability index [1]: 2.96 ± 0.32
protein stability index [2]: 3.08 ± 0.2

LTTKGEMPVQLTSRREIRKIMGVE [ANKRD40]
protein stability index [1]: 3.7 ± 0.048
protein stability index [2]: 3.85 ± 0.18

LVFLELAQFHCAYQLADWCLHHIC [RHOBTB2]
protein stability index [1]: 3.16 ± 0.17
protein stability index [2]: 2.98 ± 0.43

LVGAQAPATEEQEAASSSSTLVEV [MAGEA3]
protein stability index [1]: 5.43 ± 0.21
protein stability index [2]: 5.3 ± 0.097

LYGGMNYRRLGGGVGVIKMTHCES [KLHL20]
protein stability index [1]: 2.3 ± 0.25
protein stability index [2]: 2.85 ± 0.66

LYRNGKDQDGDQAPEYRGRTELLK [MOG]
protein stability index [1]: 4.59 ± 0.14
protein stability index [2]: 4.68 ± 0.34

MAAGFPYALRAYLGYQAVPSGSSG [CEBPB]
protein stability index [1]: 2.1 ± 0.3
protein stability index [2]: 2.04 ± 0.18

MAAHLKKRVYEEFTKVVQPQEEIA [INTS4]
protein stability index [1]: 3.67 ± 0.093
protein stability index [2]: 3.68 ± 0.7

MAAPPKAPIRVRNLTIRAGALTGK [DMRTC1]
protein stability index [1]: 3.57 ± 0.33
protein stability index [2]: 3.73 ± 0.22

MADPWQECMDYAVTLARQAGEVVC [IMPA1]
protein stability index [1]: 2.56 ± 0.44
protein stability index [2]: 2.37 ± 0.21

MAEASATGACGEAMAAAEGSSGPA [SEPHS2]
protein stability index [1]: 5.44 ± 0.2
protein stability index [2]: 5.3 ± 0.17

MASVRIREAKEGDCGDILRLIREL [SAT2]
protein stability index [1]: 3.01 ± 0.17
protein stability index [2]: 3.23 ± 0.37

MAVRPSLPESGLLSVLQIAQQDLA [FANCE]
protein stability index [1]: 3.29 ± 0.28
protein stability index [2]: 3.53 ± 0.35

MCPPVSMRYEEEGMSYLYASWMYQ [TEX19]
protein stability index [1]: 2.3 ± 0.082
protein stability index [2]: 2.11 ± 0.22

MDDQGCPRCKTTKYRNPSLKLMVN [MNAT1]
protein stability index [1]: 2.8 ± 0.16
protein stability index [2]: 3.21 ± 0.22

MDSDMDYERPNVETIKCVVVGDNA [RHOBTB2]
protein stability index [1]: 4.74 ± 0.21
protein stability index [2]: 4.87 ± 0.22

MEAYLPKKNGLYLSLVLGNVNVTL [TMEM120A]
protein stability index [1]: 3.28 ± 0.49
protein stability index [2]: 3.44 ± 0.35

MEEDKLLSAVPEEGDATRDPGPEP [PSD2]
protein stability index [1]: 5.54 ± 0.1
protein stability index [2]: 5.52 ± 0.16

MELLTNNLKFITDPFVCRLRHLSP [OR4A15]
protein stability index [1]: 2.17 ± 0.22
protein stability index [2]: 2.58 ± 0.38

MEVPQPEPAPGSALSPAGVCGGAQ [CDC25B]
protein stability index [1]: 5.25 ± 0.34
protein stability index [2]: 5.23 ± 0.33

MFGFFFGRTPLIKLSPKKTWEGFI [CDS2]
protein stability index [1]: 2.38 ± 0.48
protein stability index [2]: 2.35 ± 0.49

MGKSASKQFHNEVLKAHNEYRQKH [GLIPR2]
protein stability index [1]: 3.94 ± 0.27
protein stability index [2]: 3.96 ± 0.28

MGNSHCVPQAPRRLRASFSRKPSL [PLEKHN1]
protein stability index [1]: 3.66 ± 0.096
protein stability index [2]: 3.69 ± 0.11

MKEPITKAEILESVIKNYEDHFPL [MAGEA10]
protein stability index [1]: 3.98 ± 0.31
protein stability index [2]: 3.93 ± 0.38

MKNEKLLSKASEPKYQLFVPQLVT [RNF180]
protein stability index [1]: 2.69 ± 0.3
protein stability index [2]: 2.82 ± 0.24

MKRQNVRTLSLIVCTFTYLLVGAA [KCNK9]
protein stability index [1]: 3.36 ± 0.22
protein stability index [2]: 2.95 ± 0.37

MLDHHPVAITVEVKQEEDIKPPPP [RAD54B]
protein stability index [1]: 5.08 ± 0.22
protein stability index [2]: 5.19 ± 0.1

MLGFRPYRFYFYMWKFVSPLCMAV [SLC6A17]
protein stability index [1]: 2.27 ± 0.25
protein stability index [2]: 2.29 ± 0.68

MLLFLSVPQPRPPGARTRAGAARV [FBXO33]
protein stability index [1]: 2.31 ± 0.26
protein stability index [2]: 2.13 ± 0.21

MPNVMTGTMGMAPLGNTPMMNQSM [CLINT1]
protein stability index [1]: 3.68 ± 0.23
protein stability index [2]: 3.48 ± 0.27

MPRHNYHKVAPLVQSLCAKHGIEY [FADS1]
protein stability index [1]: 2.64 ± 0.36
protein stability index [2]: 2.5 ± 0.36

MRDRHVNMHLNLRPFDCPVCNKKF [ZBTB22]
protein stability index [1]: 2.99 ± 0.32
protein stability index [2]: 3.44 ± 0.55

MRQFLRGLDFLHANCIVHRDLKPE [CDK4]
protein stability index [1]: 2.21 ± 0.22
protein stability index [2]: 2.23 ± 0.13

MTHQNVELFKELSINVMKQLIGSS [GMCL1]
protein stability index [1]: 2.35 ± 0.21
protein stability index [2]: 2.37 ± 0.57

MTQLSSTLARCAKDILGFAVMFFI [PKD2L1]
protein stability index [1]: 2.39 ± 0.37
protein stability index [2]: 2.28 ± 0.42

NAKLASDDFRSKYQTEQSLRLLVE [KRT34]
protein stability index [1]: 3.16 ± 0.34
protein stability index [2]: 3.04 ± 0.49

NDTNSFTVDCEPSDLFRLQEYNIP [CDS2]
protein stability index [1]: 3.65 ± 0.16
protein stability index [2]: 3.74 ± 0.21

NEGLMKWENRHEGVFKFLRSEAVA [ELF3]
protein stability index [1]: 3.01 ± 0.11
protein stability index [2]: 3.09 ± 0.22

NGMAIIRPPGHHAQHSLMDGYCMF [HDAC6]
protein stability index [1]: 2.37 ± 0.17
protein stability index [2]: 2.21 ± 0.31

NGPLGPSEASIASNLQAMSTQMFQ [SMG5]
protein stability index [1]: 3.93 ± 0.18
protein stability index [2]: 3.95 ± 0.074

NLEGNELQRHADEFLLDLGHHERS [FUT8]
protein stability index [1]: 4.84 ± 0.062
protein stability index [2]: 4.83 ± 0.31

NLPIIAKMAAVSKASGRFGLLQGT [SEPHS2]
protein stability index [1]: 2.31 ± 0.18
protein stability index [2]: 2.25 ± 0.2

NLQDTLEAASFLQILPVLDFCKVF [KLHL13]
protein stability index [1]: 2.73 ± 0.35
protein stability index [2]: 2.63 ± 0.52

NLRYGFTKEVMNKYKVHGKEILRT [PPEF2]
protein stability index [1]: 2.63 ± 0.3
protein stability index [2]: 2.57 ± 0.31

NMCGYHSQDRYEFSSHITRGEHRF [IKZF1]
protein stability index [1]: 2.47 ± 0.24
protein stability index [2]: 2.55 ± 0.65

NNQEEETEFKELDGLREALANLRG [CCDC89]
protein stability index [1]: 4.71 ± 0.29
protein stability index [2]: 4.58 ± 0.4

NPEEDEDQRNPAKESLETPSNGRI [SOAT1]
protein stability index [1]: 5.76 ± 0.064
protein stability index [2]: 5.62 ± 0.077

NRTLWRLDLAGNNIPGDVLRAVEQ [LRRC45]
protein stability index [1]: 3.01 ± 0.6
protein stability index [2]: 3.51 ± 0.43

NSDRMTHCGVLEFVADEGICYLPH [UFD1]
protein stability index [1]: 2.87 ± 0.17
protein stability index [2]: 2.68 ± 0.36

NSELVQSGKSEISELRRTMQALEI [KRT17]
protein stability index [1]: 3.94 ± 0.18
protein stability index [2]: 3.94 ± 0.42

NSVSSHASSPYISSVQSYPGSASL [DLX1]
protein stability index [1]: 3.65 ± 0.19
protein stability index [2]: 3.75 ± 0.23

NTQTEELNQQVVSSSEQLQCCQTE [KRT36]
protein stability index [1]: 5.49 ± 0.28
protein stability index [2]: 5.51 ± 0.081

NVHFKEETVKLFICELVMALDYLQ [STK32A]
protein stability index [1]: 2.81 ± 0.7
protein stability index [2]: 2.85 ± 0.62

NVLHVARLPNRQLISCSEDGSVRI [WDR41]
protein stability index [1]: 2.99 ± 0.17
protein stability index [2]: 3.12 ± 0.32

NVLLFKKQNPGKFCLLSCGILTFL [RETREG3]
protein stability index [1]: 2.43 ± 0.69
protein stability index [2]: 2.89 ± 0.73

NVPSSSLPAQPNRKPGMSSTARRS [CHMP4C]
protein stability index [1]: 4.9 ± 0.32
protein stability index [2]: 4.99 ± 0.13

NVVVHDWLYYYAYKDFLWFFSKRF [SOAT1]
protein stability index [1]: 2.18 ± 0.35
protein stability index [2]: 2.17 ± 0.44

NWIVPGKFLAFSGPHPKSKIENGY [CDC14A]
protein stability index [1]: 2.32 ± 0.36
protein stability index [2]: 2.61 ± 0.48

NWRRKHEEFIATIRAAKGLDQALK [ZC2HC1A]
protein stability index [1]: 2.71 ± 0.18
protein stability index [2]: 2.78 ± 0.24

NYTATVRGLRGPNLTSPASITFTT [TNXB]
protein stability index [1]: 2.66 ± 0.23
protein stability index [2]: 2.79 ± 0.41

PALKIYEYHVKPLQTKHLKNNSS [SAMD13]
protein stability index (treatment: DMSO, c terminus: native): 3 ± 0.15
protein stability index (treatment: MLN4924 1 uM, 8 h, c terminus: native): 3.04 ± 0.2

PAPLLVLCPSRAELDRWLYHLEKQ [PLEKHN1]
protein stability index [1]: 2.62 ± 0.11
protein stability index [2]: 2.17 ± 0.29

PAQLSEDITRYYLCLQLRDDIVSG [EPB41L3]
protein stability index [1]: 2.3 ± 0.24
protein stability index [2]: 2.43 ± 0.35

PAVRQLLPCARVQICRAQGLETLF [ZSWIM9]
protein stability index [1]: 2.19 ± 0.49
protein stability index [2]: 2.5 ± 0.64

PAYVGPEILSSRASYSGKAADVWS [TRIB3]
protein stability index [1]: 3.09 ± 0.2
protein stability index [2]: 3.18 ± 0.19

PDCLRACQEQIEALLESSLRQAQQ [CCND1]
protein stability index [1]: 3.23 ± 0.34
protein stability index [2]: 3.59 ± 0.38

PDEGSDLFYDDYYEDGEVEEEADS [CDC34]
protein stability index [1]: 5.36 ± 0.32
protein stability index [2]: 5.66 ± 0.25

PDKESMYYPRVQHYRELLDSLPMD [GDAP1]
protein stability index [1]: 3.38 ± 0.23
protein stability index [2]: 3.48 ± 0.35

PDVVVRSFMTWLRSYIKLFQAPCQ [MED27]
protein stability index [1]: 2.06 ± 0.19
protein stability index [2]: 2.12 ± 0.28

PEAAAAQLRATAGSLILPPGPGGT [FCHO1]
protein stability index [1]: 4.26 ± 0.41
protein stability index [2]: 4.26 ± 0.53
